In EP4659811A1 (Université de Strasbourg, dated 2025):

Assays:
[1] = biological target: VP1 capsid protein on BKV pseudovirions of genotype IVc2 (A-66H; AB369093) (BK virus genotype IVc2 (A-66H)); experiment: cell-based or functional assay
[2] = biological target: VP1 capsid protein on BKV pseudovirions of genotype Ia (BK-D; JF894228) (BK virus genotype Ia (BK-D)); experiment: cell-based or functional assay
[3] = biological target: VP1 capsid protein on BKV pseudovirions of genotype II (GBR-12; AB263920) (BK virus genotype II (GBR-12)); experiment: cell-based or functional assay
[4] = biological target: T1, VP1 pentamer of BKV genotype IV (recombinant) (BK virus genotype IV, UniProt P14996 30-300); experiment: ELISA, coated VP1 pentamer
T1 construct: also called GIV; VP1 BKV subtype IV; not shown: N-terminal His-tag of pESPRIT002; C-terminal biotin acceptor peptide (BAP) of pESPRIT002

[5] = biological target: T2, VP1 pentamer of BKV genotype II (recombinant) (BK virus genotype II, UniProt P14996 30-300); experiment: ELISA, coated VP1 pentamer
T2 construct: also called GII; VP1 geno II pentamer; not shown: N-terminal His-tag of pESPRIT002; C-terminal biotin acceptor peptide (BAP) of pESPRIT002

B1: antibody D7P6 (antibody, V domains shown)
VH: EVQLLESGGGLVQPGGSLRLSCAASGFPFSSYAMSWVRQAPGKGLEWVSGITGSASGTYYADSVKGRFTISRDNSKNTLYLRMNSLRAEDTAVYYCAKEGAYSYDYWYFDLWGRGTLVTVSS
VL: EIVLTQSPGTLSLSPGERATLSCRASQSVSGSYLAWYQQKPGQTPRLLIYGASSRATGIPDRFSGSGSGTDFTLTINRLDPEDFGVYYCQQYGSLVTFGGGSKVEIK
Question: With B1 as the binder, how does the “Neutralization PSV IC50” value [1] read?
Answer: > 50 µg/mL

Question: And the “Neutralization PSV IC50” value [2]?
Answer: 0.096 µg/mL

Question: What about the “Neutralization PSV IC50” value [3] of the same binder?
Answer: 0.0103 µg/mL

Question: And the EC50 [4]?
Answer: 70 µg/mL

Question: What about the EC50 [5] of the same binder?
Answer: 0.25 µg/mL

B2: antibody E4P2 (antibody, V domains shown)
VH: QVQLQESGPGLVKPSQTLSLTCTVSGGSISSGGYYWSWIRQHPGKGLEWIGYMYYSGSTNYNPSLKSRVTISVDTSKNQFSLKLTSVTAADTAVYYCARDRRDYGDYYYFGMDVWGQGTTVTVSS
VL: QSVLTQPPSVSGAPGQRVTISCTGSSSNIGAGYDVHWYQQLPGTAPKLLIYANSNRPSGVPDRFSGSKSGTSASLAITGLQAEDEANYYCQSYDSSLSVYVVFGGGTKLTVL
Question: Which “Neutralization PSV IC50” value [1] does the source give for B2 here?
Answer: > 50 µg/mL

Question: What about the “Neutralization PSV IC50” value [2] of the same binder?
Answer: 0.0399 µg/mL

Question: What about the “Neutralization PSV IC50” value [3] of the same binder?
Answer: 0.979 µg/mL

Question: And the EC50 [4]?
Answer: 0.18 µg/mL

Question: What about the EC50 [5] of the same binder?
Answer: 0.025 µg/mL

B3: antibody F3P7 (antibody, V domains shown)
VH: QVQLVQSGAEVKKPGASVKVSCKVSGYTFTSYSMHWLRQAPGQRLEWMGWINAGNGDTKYSQKFQGRITISRDTSARTTYMELSSLRSEDTAVFYCARSNSPTVTYNYYYYAMDVWGQGTTVTVSS
VL: EIVLTQSPGTLSLSPGERATLSCRASQSVRSSYLAWYQQQAGQAPRLLIYDASSRATGIPDRFSGSGSGTDFSLTISRLDPEDFAVYYCQQYGNSPLTFGGGTKVEIK
Question: B3 was tested. Which “Neutralization PSV IC50” value [1] did it give?
Answer: 0.614 µg/mL

Question: What about the “Neutralization PSV IC50” value [2] of the same binder?
Answer: > 50 µg/mL

Question: What about the “Neutralization PSV IC50” value [3] of the same binder?
Answer: 0.0457 µg/mL

Question: And the EC50 [4]?
Answer: 1.8 µg/mL

Question: And the EC50 [5]?
Answer: 1.5 µg/mL

B4: antibody D11P7 (antibody, V domains shown)
VH: EVQLVESGGGLVQPGGSLRLSCAASGFTFRSYTMDWVRQAPGKGLEWVSCISGSSNHKYYADSVRGRFTISRDNAKNSLFLQMNSLRAEDSAVYYCAREDDILTPLYGMDVWGPGTTVTVSS
VL: QSALTQPASVSGSPGQSITISCTGTSSDVGAYNYVSWYRLRPGKDPHLIIYDVSHRPAGVSNRFSGSKSGNTASLTISGLQAEDEDEYYCCSYAHRGTPLFGGGTKLTVL
Question: How did the “Neutralization PSV IC50” value [1] turn out when B4 was run?
Answer: > 50 µg/mL

Question: What about the “Neutralization PSV IC50” value [2] of the same binder?
Answer: 0.275 µg/mL

Question: What about the “Neutralization PSV IC50” value [3] of the same binder?
Answer: 0.0901 µg/mL

Question: Does B4 bind [4]?
Answer: no binding (tested: starting at 50 µg/mL)

Question: Does B4 bind [5]?
Answer: no binding (tested: starting at 50 µg/mL)

B5: antibody D3P7 (antibody, V domains shown)
VH: QVQLVQSGSELKKPGASVRVSCKASAYTFTNSAINWVRQAPGQGLEWTGWINTNTGNPAYAQGFRGRFVFSLDTSVSEAYLQITNLKAEDTATYYCAVPYNFGGDHNSFHFFGMDVWGQGTTVTVSS
VL: QSALTQPASVSGSPGQSITISCTGSSSDVGTYNFVSWYQQQPAKAPKVMIYEGTKRPSGISDRFSGSKSGNTASLTISGLQAEDEADYYCSSYAGGNAFVFGTGTRVSVL
Question: How did the “Neutralization PSV IC50” value [1] turn out when B5 was run?
Answer: > 50 µg/mL

Question: What about the “Neutralization PSV IC50” value [2] of the same binder?
Answer: > 50 µg/mL

Question: What about the “Neutralization PSV IC50” value [3] of the same binder?
Answer: > 50 µg/mL

Question: And the EC50 [4]?
Answer: 0.3 µg/mL

Question: What about the EC50 [5] of the same binder?
Answer: 0.15 µg/mL

B6: antibody C11P7 (antibody, V domains shown)
VH: EVQLVESGGGLVQPGGSLKLSCAASGFSLSNSEVHWVRQASGKGLEWIGRVRSRANRHATGYTESVNGRFTVSRDDSKNTASLQLESLKIEDTAVYYCTGVRGVISRYFAMDVWGQGTTVTVSS
VL: B4 VL
Question: What does the source list for B6?
Answer: Neutralization PSV IC50 [1]: > 50 µg/mL; Neutralization PSV IC50 [2]: > 50 µg/mL; Neutralization PSV IC50 [3]: > 50 µg/mL; EC50 [4]: 4 µg/mL; EC50 [5]: 6 µg/mL

B7: antibody F2P7 (antibody, V domains shown)
VH: EVQLVQSGGGLVQPGGSLKLSCAASGFSSSGSEIHWVRQASGRGLEWIGRVRSTANRHAPGYTESVRGTFTVSRDESKNTASLELKSLKIEDTAVYYCTGVRGVISRYFAMDVWGQGTTVTVSS
VL: QSALTQPASVSGSPGQSITISCTGTNSDLGSYNYVSWYRLHPGKDPHLIIYDVTHRPSGVSSRFSGSKSGKTASLTISGLQSEDEAEYFCCSYASVGSPIFGGGTKVTVL
Question: Which “Neutralization PSV IC50” value [1] does the source give for B7 here?
Answer: > 50 µg/mL

Question: And the “Neutralization PSV IC50” value [2]?
Answer: > 50 µg/mL

Question: What about the “Neutralization PSV IC50” value [3] of the same binder?
Answer: > 50 µg/mL

Question: What about the EC50 [4] of the same binder?
Answer: 4 µg/mL

Question: What about the EC50 [5] of the same binder?
Answer: 10 µg/mL
